Patent publication US20250313644A1
Read-outs that look alike come from different tables or passages of the source.

Experiments:
[1] = target: FASL (UniProt P48023); assay: ELISA, coated FASL, Ab 25 nM
[2] = target: LIGHT (UniProt O43557); assay: ELISA, coated LIGHT, Ab 1.563 nM
[3] = target: FASL (UniProt P48023); assay: ELISA, coated FASL, Ab 6.25 nM
[4] = target: T1, LT-α (UniProt P01374); assay: ELISA, coated LT-α, Ab 100 nM
T1 sequence (looked up): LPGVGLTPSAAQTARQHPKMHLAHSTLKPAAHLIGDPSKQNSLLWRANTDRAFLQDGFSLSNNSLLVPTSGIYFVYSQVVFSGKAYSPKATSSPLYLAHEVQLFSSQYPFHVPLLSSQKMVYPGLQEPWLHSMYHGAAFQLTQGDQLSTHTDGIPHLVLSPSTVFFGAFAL

[5] = target: TNFα (UniProt P01375); assay: ELISA, coated TNF-α, Ab 1.563 nM
[6] = target: LIGHT (UniProt O43557); assay: ELISA, coated LIGHT, Ab 0.391 nM
[7] = target: human TL1A (HuTL1A) (human) (UniProt O95150)
[8] = target: FASL (UniProt P48023); assay: ELISA, coated FASL, Ab 100 nM
[9] = target: TNFα (UniProt P01375); assay: ELISA, coated TNF-α, Ab 6.25 nM
[10] = target: human TL1A (HuTL1A) (human) (UniProt O95150); assay: ELISA: biotin-HuTL1A on streptavidin plate, antibody diluted at pH 5.8, HRP-anti-human Fc, OD450
[11] = target: human TL1A (HuTL1A) (human) (UniProt O95150); assay: competition ELISA: antibody dilution mixed 1:1 with Biotin-TL1A, added to coated DcR3 (1 µg/mL), Streptavidin-HRP, OD450; blocked partner of TL1A: DcR3
[12] = target: human TL1A (HuTL1A) (human) (UniProt O95150); assay: as above; remark: listed apart in the source
[13] = target: TNFα (UniProt P01375); assay: ELISA, coated TNF-α, Ab 0.391 nM
[14] = target: human TL1A (HuTL1A) (human) (UniProt O95150); assay: DLS, antigen and antibody mixed in equal moles
[15] = target: T1, LT-α; assay: ELISA, coated LT-α, Ab 0.000 nM (blank)
[16] = target: LIGHT (UniProt O43557); assay: ELISA, coated LIGHT, Ab 25 nM
[17] = target: LIGHT (UniProt O43557); assay: ELISA, coated LIGHT, Ab 0.000 nM (blank)
[18] = target: human TL1A (HuTL1A) (human) (UniProt O95150); remark: listed apart in the source
[19] = target: T1, LT-α; assay: ELISA, coated LT-α, Ab 1.563 nM
[20] = target: T1, LT-α; assay: ELISA, coated LT-α, Ab 6.25 nM
[21] = target: FASL (UniProt P48023); assay: ELISA, coated FASL, Ab 1.563 nM
[22] = target: TNFα (UniProt P01375); assay: ELISA, coated TNF-α, Ab 25 nM
[23] = target: LIGHT (UniProt O43557); assay: ELISA, coated LIGHT, Ab 6.25 nM
[24] = target: FASL (UniProt P48023); assay: ELISA, coated FASL, Ab 0.000 nM (blank)
[25] = target: T1, LT-α; assay: ELISA, coated LT-α, Ab 0.391 nM
[26] = target: TNFα (UniProt P01375); assay: ELISA, coated TNF-α, Ab 100 nM
[27] = target: TNFα (UniProt P01375); assay: ELISA, coated TNF-α, Ab 0.000 nM (blank)
[28] = target: human TL1A (HuTL1A) (human) (UniProt O95150); assay: ELISA: biotin-HuTL1A on streptavidin plate, antibody diluted at pH 7.4, HRP-anti-human Fc, OD450
[29] = target: LIGHT (UniProt O43557); assay: ELISA, coated LIGHT, Ab 100 nM
[30] = target: FASL (UniProt P48023); assay: ELISA, coated FASL, Ab 0.391 nM
[31] = target: T1, LT-α; assay: ELISA, coated LT-α, Ab 25 nM

Sequence of TNFα (P01375 77-233 limits assumed): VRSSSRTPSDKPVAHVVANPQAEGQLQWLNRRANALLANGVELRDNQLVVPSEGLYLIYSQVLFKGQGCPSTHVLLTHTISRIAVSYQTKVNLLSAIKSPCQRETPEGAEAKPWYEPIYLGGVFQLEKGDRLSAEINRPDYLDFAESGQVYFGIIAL
Sequence of LIGHT (O43557 74-240 limits assumed): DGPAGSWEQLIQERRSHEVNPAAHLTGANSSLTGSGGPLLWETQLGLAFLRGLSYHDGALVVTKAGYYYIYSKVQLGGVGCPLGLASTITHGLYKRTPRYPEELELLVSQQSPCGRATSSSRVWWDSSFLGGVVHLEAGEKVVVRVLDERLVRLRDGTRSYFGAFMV
Sequence of human TL1A (HuTL1A) (human) (O95150 57-251 limits assumed): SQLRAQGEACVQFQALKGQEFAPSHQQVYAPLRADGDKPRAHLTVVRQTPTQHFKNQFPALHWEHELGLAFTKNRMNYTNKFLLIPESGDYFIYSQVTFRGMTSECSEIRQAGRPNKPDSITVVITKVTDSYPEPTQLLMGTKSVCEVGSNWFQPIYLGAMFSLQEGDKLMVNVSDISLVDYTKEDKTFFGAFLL
Sequence of FASL (P48023 134-281 limits assumed): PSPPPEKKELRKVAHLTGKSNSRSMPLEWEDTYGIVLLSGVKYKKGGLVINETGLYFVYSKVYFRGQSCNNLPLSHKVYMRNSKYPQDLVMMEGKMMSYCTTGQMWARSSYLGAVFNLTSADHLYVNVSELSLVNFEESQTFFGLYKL

OD450 nm [1]: 0.0643
OD450 nm [2]: 0.0741
OD450 nm [3]: 0.0533
OD450 nm [4]: 0.0701
OD450 nm [5]: 0.0517
OD450 nm [6]: 0.0643
IC50 (read off the curve); SEAP reporter in HEK293T/DR3-NFκB cells with soluble TL1A, OD655 [7]: 4 nM
OD450 nm [8]: 0.0828
OD450 nm [9]: 0.0514
EC50 (read off the curve) [10]: 0.2 nM
IC50 (read off the curve) [11]: 30 nM
IC50 (read off the curve) [12]: 7 µg/mL
OD450 nm [13]: 0.0522
Ave Z-dia (nm) of the antigen-antibody complex [14]: 33.1 nm
OD450 nm [15]: 0.0803
OD450 nm [16]: 0.076
OD450 nm [17]: 0.0588
IC50 (read off the curve); IFN-γ of human T cells with IL-12, IL-18 and exogenous human TL1A [18]: 1 nM
OD450 nm [19]: 0.0701
OD450 nm [20]: 0.0646
OD450 nm [21]: 0.0522
OD450 nm [22]: 0.0577
OD450 nm [23]: 0.0719
OD450 nm [24]: 0.0549
OD450 nm [25]: 0.0713
OD450 nm [26]: 0.0757
OD450 nm [27]: 0.0612
EC50 (read off the curve) [28]: 0.2 nM
OD450 nm [29]: 0.0864
OD450 nm [30]: 0.0511
OD450 nm [31]: 0.0659
B1: BM2 antibody (Merck/Prometheus TL1A monoclonal antibody PRA023) (antibody, INN chains, looked up, V domains shown)
VH: QVQLVQSGAEVKKPGASVKVSCKASGFDIQDTYMHWVKQRPGQGLEWMGRIDPASGHTKYDPKFQVRVTITRDTSTSTVYLELSSLRSEDTAVYYCARSGGLPDVWGQGTTVTVSS
VL: EIVLTQSPGTLSLSPGERATLSCRASSSVSYMYWYQQKPGQAPRPLIYATSNLASGIPDRFSGSGSGTDFTLTISRLEPEDFAVYYCQQWEGNPRTFGGGTKLEIK
